Data: patent publication US11325966

Key:
Experiment in all cases: cell-based or functional assay
[1] = molecular target: HIV-1 Env of pseudovirus X2131_C1_B5 (HIV-1)
[2] = molecular target: HIV-1 Env of pseudovirus CNE30 (HIV-1)
[3] = molecular target: HIV-1 Env of pseudovirus Ce2010_F5 (HIV-1)
[4] = molecular target: HIV-1 Env of pseudovirus WEAU_d15_410_787 (HIV-1)
[5] = molecular target: HIV-1 Env of pseudovirus X1193_c1 (HIV-1)
[6] = molecular target: HIV-1 Env of pseudovirus 620345.c01 (HIV-1)
[7] = molecular target: HIV-1 Env of pseudovirus 3365.v2.c2 (HIV-1)
[8] = molecular target: HIV-1 Env of pseudovirus HIV-16845-2.22 (HIV-1)
[9] = molecular target: HIV-1 Env of pseudovirus C2101.c01 (HIV-1)
[10] = molecular target: HIV-1 Env of pseudovirus CNE8 (HIV-1)
[11] = molecular target: HIV-1 Env of pseudovirus 191084 B7-19 (HIV-1)
[12] = molecular target: HIV-1 Env of pseudovirus CNE58 (HIV-1)
[13] = molecular target: HIV-1 Env of pseudovirus BJOX028000.10.3 (HIV-1)
[14] = molecular target: HIV-1 Env of pseudovirus 9004SS_A3_4 (HIV-1)
[15] = molecular target: HIV-1 Env of pseudovirus Ce2060_G9 (HIV-1)
[16] = molecular target: HIV-1 Env of pseudovirus 6545.v4.c1 (HIV-1)
[17] = molecular target: HIV-1 Env of pseudovirus CNE17 (HIV-1)
[18] = molecular target: HIV-1 Env of pseudovirus T257-31 (HIV-1)
[19] = molecular target: HIV-1 Env of pseudovirus X2088_c9 (HIV-1)
[20] = molecular target: HIV-1 Env of pseudovirus 249M B10 (HIV-1)
[21] = molecular target: HIV-1 Env of pseudovirus 89-F1_2_25 (HIV-1)
[22] = molecular target: HIV-1 Env of pseudovirus R2184.c04 (HIV-1)
[23] = molecular target: HIV-1 Env of pseudovirus 6244_13_B5_4576 (HIV-1)
[24] = molecular target: HIV-1 Env of pseudovirus BJOX010000.06.2 (HIV-1)
[25] = molecular target: HIV-1 Env of pseudovirus R1166.c01 (HIV-1)
[26] = molecular target: HIV-1 Env of pseudovirus T278-50 (HIV-1)
[27] = molecular target: HIV-1 Env of pseudovirus Q259.d2.17 (HIV-1)
[28] = molecular target: HIV-1 Env of pseudovirus 6952.v1.c20 (HIV-1)
[29] = molecular target: HIV-1 Env of pseudovirus QH0692.42 (HIV-1)
[30] = molecular target: HIV-1 Env of pseudovirus SC422661.8 (HIV-1)
[31] = molecular target: HIV-1 Env of pseudovirus ZM233M.PB6 (HIV-1)
[32] = molecular target: HIV-1 Env of pseudovirus Ce0682_E4 (HIV-1)
[33] = molecular target: HIV-1 Env of pseudovirus Ce1172_H1 (HIV-1)
[34] = molecular target: HIV-1 Env of pseudovirus CNE53 (HIV-1)
[35] = molecular target: HIV-1 Env of pseudovirus 3415.v1.c1 (HIV-1)
[36] = molecular target: HIV-1 Env of pseudovirus 211-9 (HIV-1)
[37] = molecular target: HIV-1 Env of pseudovirus TRJO4551.58 (HIV-1)
[38] = molecular target: HIV-1 Env of pseudovirus 928-28 (HIV-1)
[39] = molecular target: HIV-1 Env of pseudovirus Du156.12 (HIV-1)
[40] = molecular target: HIV-1 Env of pseudovirus CNE52 (HIV-1)

Q: What does the source list for 354BG8 (antibody)?
A: IC50 in TZM-bl assay [1]: 0.014 µg/mL; IC80 in TZM-bl assay [1]: 0.056 µg/mL; IC50 in TZM-bl assay [2]: 0.261 µg/mL; IC80 in TZM-bl assay [2]: 0.678 µg/mL; IC50 in TZM-bl assay [3]: > 10 µg/mL; IC80 in TZM-bl assay [3]: > 10 µg/mL; IC50 in TZM-bl assay [4]: 0.031 µg/mL; IC80 in TZM-bl assay [4]: 0.112 µg/mL; IC50 in TZM-bl assay [5]: 0.07 µg/mL; IC80 in TZM-bl assay [5]: 0.207 µg/mL; IC50 in TZM-bl assay [6]: > 10 µg/mL; IC80 in TZM-bl assay [6]: > 10 µg/mL; IC50 in TZM-bl assay [7]: 0.057 µg/mL; IC80 in TZM-bl assay [7]: 0.2 µg/mL; IC50 in TZM-bl assay [8]: 0.727 µg/mL; IC80 in TZM-bl assay [8]: 3.93 µg/mL; IC50 in TZM-bl assay [9]: > 10 µg/mL; IC80 in TZM-bl assay [9]: > 10 µg/mL; IC50 in TZM-bl assay [10]: > 10 µg/mL; IC80 in TZM-bl assay [10]: > 10 µg/mL; IC50 in TZM-bl assay [11]: 0.026 µg/mL; IC80 in TZM-bl assay [11]: 0.108 µg/mL; IC50 in TZM-bl assay [12]: 0.165 µg/mL; IC80 in TZM-bl assay [12]: 0.476 µg/mL; IC50 in TZM-bl assay [13]: > 10 µg/mL; IC80 in TZM-bl assay [13]: > 10 µg/mL; IC50 in TZM-bl assay [14]: 0.012 µg/mL; IC80 in TZM-bl assay [14]: 0.032 µg/mL; IC50 in TZM-bl assay [15]: > 10 µg/mL; IC80 in TZM-bl assay [15]: > 10 µg/mL; IC50 in TZM-bl assay [16]: > 10 µg/mL; IC80 in TZM-bl assay [16]: > 10 µg/mL; IC50 in TZM-bl assay [17]: 1.18 µg/mL; IC80 in TZM-bl assay [17]: 4.85 µg/mL; IC50 in TZM-bl assay [18]: > 10 µg/mL; IC80 in TZM-bl assay [18]: > 10 µg/mL; IC50 in TZM-bl assay [19]: 0.003 µg/mL; IC80 in TZM-bl assay [19]: 0.01 µg/mL; IC50 in TZM-bl assay [20]: > 10 µg/mL; IC80 in TZM-bl assay [20]: > 10 µg/mL; IC50 in TZM-bl assay [21]: > 10 µg/mL; IC80 in TZM-bl assay [21]: > 10 µg/mL; IC50 in TZM-bl assay [22]: > 10 µg/mL; IC80 in TZM-bl assay [22]: > 10 µg/mL; IC50 in TZM-bl assay [23]: 0.091 µg/mL; IC80 in TZM-bl assay [23]: 0.38 µg/mL; IC50 in TZM-bl assay [24]: > 10 µg/mL; IC80 in TZM-bl assay [24]: > 10 µg/mL; IC50 in TZM-bl assay [25]: > 10 µg/mL; IC80 in TZM-bl assay [25]: > 10 µg/mL; IC50 in TZM-bl assay [26]: 1.71 µg/mL; IC80 in TZM-bl assay [26]: > 10 µg/mL; IC50 in TZM-bl assay [27]: > 10 µg/mL; IC80 in TZM-bl assay [27]: > 10 µg/mL; IC50 in TZM-bl assay [28]: 0.023 µg/mL; IC80 in TZM-bl assay [28]: 0.086 µg/mL; IC50 in TZM-bl assay [29]: 0.106 µg/mL; IC80 in TZM-bl assay [29]: 0.383 µg/mL; IC50 in TZM-bl assay [30]: 0.058 µg/mL; IC80 in TZM-bl assay [30]: 0.368 µg/mL; IC50 in TZM-bl assay [31]: 0.058 µg/mL; IC80 in TZM-bl assay [31]: 0.371 µg/mL; IC50 in TZM-bl assay [32]: > 10 µg/mL; IC80 in TZM-bl assay [32]: > 10 µg/mL; IC50 in TZM-bl assay [33]: 0.019 µg/mL; IC80 in TZM-bl assay [33]: 0.083 µg/mL; IC50 in TZM-bl assay [34]: 0.013 µg/mL; IC80 in TZM-bl assay [34]: 0.058 µg/mL; IC50 in TZM-bl assay [35]: > 10 µg/mL; IC80 in TZM-bl assay [35]: > 10 µg/mL; IC50 in TZM-bl assay [36]: 0.065 µg/mL; IC80 in TZM-bl assay [36]: 0.403 µg/mL; IC50 in TZM-bl assay [37]: 0.057 µg/mL; IC80 in TZM-bl assay [37]: 0.218 µg/mL; IC50 in TZM-bl assay [38]: 0.616 µg/mL; IC80 in TZM-bl assay [38]: 2.4 µg/mL; IC50 in TZM-bl assay [39]: 0.01 µg/mL; IC80 in TZM-bl assay [39]: 0.036 µg/mL; IC50 in TZM-bl assay [40]: 1.99 µg/mL; IC80 in TZM-bl assay [40]: 9.76 µg/mL
